The values that follow come from the supplement of paper PMC12042874.

± gives the uncertainty stated by the source.

This data set in a line: amyloid nucleation score (Sup35N fusion, yeast selection) (log enrichment); library NNK1; higher = more nucleation; inactive = no reads after selection. The essentials:
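The nucleation score is the log enrichment of output over input reads, calculated with DiMSum and centred on the mode score of non-aggregating sequences. Sequences with under 100 input reads were excluded. Reads came from Illumina sequencing of plasmid inserts from psi-negative yeast expressing Sup35N fused to peptides of 20 random codons, induced 24 hours with 100 μM copper sulfate and grown 7 days at 30°C without adenine and uracil.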
VDLNSGQSMNLGTYECRSNV: the amyloid nucleation score is -1.49 ± 1.8.

FMLCNFLVVIYSGSR: the amyloid nucleation score stood at 5.82 ± 0.063.

Consider FSAIMVRC, for which the amyloid nucleation score entry was “inactive”.

Consider QHVFWIYPLPTLSSYGTARS, for which the amyloid nucleation score was -0.227 ± 1.9.

Substance LSIAHYGLNQSMSVRYREST registered an amyloid nucleation score of 0.771 ± 0.66.

Substance VSQVVCGMSYFGDCAIRQES displayed an amyloid nucleation score of 0.153 ± 0.5.

TYSPQLLYNYPLCLVFLSCL yielded an amyloid nucleation score of 2.83 ± 0.15.

Consider SHCCR, for which the amyloid nucleation score entry was “inactive”.

As for LRTCFEQRENMIA, the amyloid nucleation score was -0.229 ± 0.79.

Regarding LFRRRKITTVYIDKNAMLTS, the amyloid nucleation score result was “inactive”.

Take VCNWVSLGVALHRALEQLGI: the amyloid nucleation score is -1.32 ± 0.92.

For the substance VVFRGIVCCCQ, the amyloid nucleation score came out at 0.3 ± 0.58.

Regarding VVISIYGMYRSFTPQLWFKA, the amyloid nucleation score was -0.603 ± 0.68.

RIIITLH: the amyloid nucleation score was 0.264 ± 0.31.

In turn, PCCWLPRGDTLDYTQHR showed an amyloid nucleation score of -0.065 ± 0.98.

In the case of IGARQLSFLHSIRTREMRVQ, the amyloid nucleation score result was “inactive”.

As to SFYYIWRGLVTSED, the amyloid nucleation score was -0.779 ± 0.8.

SLSQFSKPGYICVNMVCSQA showed an amyloid nucleation score of 1.36 ± 0.48.

Regarding SSLLKWWDIVMKGEVIHGWC, the amyloid nucleation score is -0.095 ± 0.47.

The substance FRYKDGCSFSTAVDYSCRMF gave an amyloid nucleation score of 1.06 ± 0.23.

As to YPWIFCFEILHYYQLVRLWG, the amyloid nucleation score is -1.13 ± 0.55.

On to MSIQCTSALGPL, for which the amyloid nucleation score worked out at 2.13 ± 0.35.

In turn, REWSSYRIVRWYEMCYISTS returned an amyloid nucleation score of -0.158 ± 0.84.

In turn, LYICPHYDYWLCEQYMHWSP came in with an amyloid nucleation score of 0.69 ± 0.35.

On to RFFGFS, for which the amyloid nucleation score was -0.63 ± 1.1.

HLWPVVSKGWDGFRCVSQVF registered an amyloid nucleation score of -1.25 ± 2.4.

RSMYSQCVLIMGAPTRISGL displayed an amyloid nucleation score of 6.295 ± 0.054.

For the substance YEGYGPCWRKLYS, the amyloid nucleation score was determined as 0.15 ± 0.36.

The substance RLRDTNVYTTQFFVFYLMNW registered an amyloid nucleation score of 6.677 ± 0.051.

On to EFSVFYMGFGVM, for which the amyloid nucleation score entry was “inactive”.

Turning to GKDLDMRRLWFGPAGIWWSK, the amyloid nucleation score was determined as 0.006 ± 0.59.

Regarding SNLRSVMKRNYTVRLFCVG, the amyloid nucleation score result was “inactive”.

Regarding SRGFKPMPGQYFCKG, the amyloid nucleation score was 0.165 ± 0.26.

Regarding QISSTRIDW, the amyloid nucleation score is -0.074 ± 0.32.

RGEILCWWIGFYFVAVK: the amyloid nucleation score came out at 0.149 ± 0.32.

Substance INDESFWDCIVPNRMKGFSG gave an amyloid nucleation score of 0.325 ± 0.42.

Consider QTFSNPFFVLYLSNRLIPKV, for which the amyloid nucleation score was 1.82 ± 0.29.

ERSYSNWAMG gave an amyloid nucleation score of 0.958 ± 0.74.

The substance SGAVIYANKFYVISCHNWSY yielded an amyloid nucleation score of 7.478 ± 0.057.

For VISVNLGFFPSFVIRASVAS, the amyloid nucleation score turned out to be 5.45 ± 0.079.

On to MYVPQSINSYTQWEPKHIRW, for which the amyloid nucleation score turned out to be 1.64 ± 0.43.

Take FNVISVWSPWQW: the amyloid nucleation score was found to be 6.3 ± 0.064.

In the case of LRPSPKVWHDFWGMM, the amyloid nucleation score came out at 0.437 ± 0.47.

Substance ITVRATR showed an amyloid nucleation score of -0.97 ± 1.7.

IGGCLETCCSLGDKLGRRKR: the amyloid nucleation score turned out to be 1.07 ± 0.66.

The substance IWWVDGVKTGSF gave an amyloid nucleation score of 1.21 ± 0.76.

For YGSSLAAWVRLCVLTGDSRQ, the amyloid nucleation score came to 1.46 ± 0.38.

TSRGKDLSTRVGGGAPPGFR: the amyloid nucleation score is -0.766 ± 1.6.

For the substance VFIYTAACP, the amyloid nucleation score stood at 0.492 ± 0.45.

YIFAAWGGNKTHLCGQIKY had an amyloid nucleation score of 0.862 ± 0.18.

On to SCDVTILGYLAMMKLDVMWV, for which the amyloid nucleation score was -0.074 ± 0.34.

In turn, NWIGS gave an amyloid nucleation score of 1.44 ± 0.41.

Turning to MSLLALWCLSVRCTVVLVRT, the amyloid nucleation score was -0.003 ± 0.48.

Substance EAFYFRLRKLFDRNPGGEGT gave an amyloid nucleation score of 0.621 ± 0.32.

For the substance GWNRTTSHWIRVFYCAVLVC, the amyloid nucleation score is -0.346 ± 0.53.

Substance TVMTRRSLWRTVGLNWVMLV returned an amyloid nucleation score of 1.53 ± 0.19.

Turning to HARRRCLDGFDMQGGIFM, the amyloid nucleation score was 0.047 ± 0.47.

RPYGVNR: the amyloid nucleation score was -0.271 ± 0.66.

With EFRKEG, the amyloid nucleation score was 1.02 ± 0.52.

CVSPSVTNFAELVSIVISPS displayed an amyloid nucleation score of 0.652 ± 0.66.

For YLFQAGQDTRLLIC, the amyloid nucleation score came to 0.236 ± 0.63.

Take PFYSETDDSRYIDVRRVFCF: the amyloid nucleation score entry is “inactive”.

On to GAIEASLVYRISNFKAGFAP, for which the amyloid nucleation score stood at 1.91 ± 0.35.

In turn, YHVYSVRSNVWALLKIRLV had an amyloid nucleation score of 1.14 ± 0.58.

In turn, LSGVCRIFH displayed an amyloid nucleation score of 0.584 ± 0.35.

The substance MEYTYVQTSKYKHERNATWC had an amyloid nucleation score of 0.008 ± 0.97.

In the case of FMHAFRNQRLNLAGLGFRVA, the amyloid nucleation score stood at 0.573 ± 0.62.

As to IRNSEKLNRGCGCGVMHVSV, the amyloid nucleation score worked out at 0.239 ± 0.49.

The substance YYDFGIIRSCVFSNGCVGMY gave an amyloid nucleation score of 1.62 ± 0.8.

ACQGWGTWEELGHDERTDLV registered an amyloid nucleation score of 0.817 ± 0.41.

Substance NHRNVMRQIDASVMGVYNTW yielded an amyloid nucleation score of 0.766 ± 1.2.

Regarding VLFHHSSQIRVI, the amyloid nucleation score entry was “inactive”.

As to RNGPSWYSAIPY, the amyloid nucleation score entry is “inactive”.

Regarding LSTAWFGQNAHRCLGLVTLA, the amyloid nucleation score is -0.005 ± 0.59.

TLRVIAVVDTFSRVYFR gave an amyloid nucleation score of 3.58 ± 0.12.

VSVSRGRTFSFSIGSYRIGR: the amyloid nucleation score came to 3.11 ± 0.091.

VYSMWTERQFLGMILGGEAG came in with an amyloid nucleation score of -0.091 ± 0.85.

As to LGTSEKGNRKNR, the amyloid nucleation score result was “inactive”.

Regarding EGPQIKAAGKPY, the amyloid nucleation score was -0.373 ± 0.32.

GRSGCCWMS yielded an amyloid nucleation score of 2.77 ± 0.19.

As for WDFDYSMCVLYMVTAIRLWR, the amyloid nucleation score was -0.26 ± 0.54.

Substance TESPRCRVPGVELPD had an amyloid nucleation score of -0.136 ± 0.67.

As to RKALYA, the amyloid nucleation score is -0.117 ± 0.38.

DACCYDECVS came in with an amyloid nucleation score of 0.782 ± 0.25.

On to FIELMRGDDLMHRGTLYVLR, for which the amyloid nucleation score entry was “inactive”.

YHGVTLVSLLRYKLW came in with an amyloid nucleation score of 1.28 ± 0.27.

Substance EGLARCQCLCLTRVIYVESA showed an amyloid nucleation score of -0.403 ± 1.4.

LDIRVCRLPRSVFNR returned an amyloid nucleation score of -0.002 ± 1.

The substance TYTVGHYVAFWSRRVKSNES yielded an amyloid nucleation score of 0.392 ± 0.67.

With RFYIGIVIQRTYGRC, the amyloid nucleation score is 2.79 ± 0.071.

HKIHAVQLLQVRYLNKRLAG had an amyloid nucleation score of 0.96 ± 0.17.

IWNIVWNNLVYVNFSNLGGV came in with an amyloid nucleation score of 3.73 ± 0.08.

With VVGSVLRGSYTCLG, the amyloid nucleation score was -0.972 ± 0.82.

In the case of VSEFGFIVF, the amyloid nucleation score is -0.315 ± 0.76.

On to INLCAFGLPLVKVLHWLLYL, for which the amyloid nucleation score result was “inactive”.

Substance LICNFRLSRYQSAVNVVYWV returned an amyloid nucleation score of 0.802 ± 0.14.

Regarding QWRFKVRVHVEVSSSGVCSI, the amyloid nucleation score result is “inactive”.

Substance LIFRRGTALFVLPVARYRCA had an amyloid nucleation score of -1.57 ± 1.8.

As for RNWDMGHKQP, the amyloid nucleation score is 2.66 ± 0.12.

Substance VWTGCVHCRRWDSGSLLNSW returned an amyloid nucleation score of -0.036 ± 0.91.

Substance VLGYAFYCYLCRNLRRNNFS displayed an amyloid nucleation score of 0.864 ± 0.53.

SQSRRVSGQQDGPQMYSNGP gave an amyloid nucleation score of -0.232 ± 0.36.

With RRSWVFFVDWFIFVCLCVNG, the amyloid nucleation score result was “inactive”.

The substance GSSAFRINLFFLSIVGYRRS displayed an amyloid nucleation score of 5.61 ± 0.062.

Consider TWEFRYNFFYNVPRLQTYKI, for which the amyloid nucleation score was -0.169 ± 0.42.

Substance HCHSPATKPALTLMMY had an amyloid nucleation score of -0.738 ± 0.93.

SLLCTIYRVCADPYMGQNMT: the amyloid nucleation score entry was “inactive”.

Consider VMCAT, for which the amyloid nucleation score was -0.048 ± 0.59.

With QMKVISLVRHE, the amyloid nucleation score result is “inactive”.

Regarding NACRCVYSGRVSAYDVRVRN, the amyloid nucleation score was 0 ± 0.6.

In the case of EPIYCFCDCNGSRWALYVSV, the amyloid nucleation score was 0.421 ± 0.54.

As for MNFDCFPNSL, the amyloid nucleation score came out at 1.22 ± 0.35.

As for KLCCSLVNSIMNLFAMSAAV, the amyloid nucleation score result is “inactive”.

YCQVYGSVWNFKRYYLATWS showed an amyloid nucleation score of -0.128 ± 0.55.

In the case of YFAHGSWRLSCFLVYWLMRP, the amyloid nucleation score result is “inactive”.

DYESKSNFPYTQVNAITW yielded an amyloid nucleation score of -1.05 ± 1.2.

NEWKSLSINEMRGSMTINNS: the amyloid nucleation score stood at 1.44 ± 0.12.

LALMFFNLKSCIFMSMWLFT came in with an amyloid nucleation score of 1.65 ± 0.57.

SSGFSTMYIK registered an amyloid nucleation score of -0.892 ± 2.1.

NMALCTCGLNPGNL: the amyloid nucleation score was determined as 0.003 ± 0.46.

Take STSATPYFSFRKIFMASAAS: the amyloid nucleation score was -0.029 ± 0.57.

In the case of PCTGLRHGLHEFMSRYPDRD, the amyloid nucleation score turned out to be 0.215 ± 0.97.

With PQKHSFAWHRMVATLALSYR, the amyloid nucleation score amounted to 1.17 ± 0.93.

For the substance TSAASLVERNLFLVSFFIIW, the amyloid nucleation score is -0.376 ± 1.7.

WNCLCSGLTC came in with an amyloid nucleation score of 6.806 ± 0.055.

The substance RNLYQFM displayed an amyloid nucleation score of 0.203 ± 0.27.

In turn, FIASGPVHLRLYAKFNNFHL registered an amyloid nucleation score of 8.643 ± 0.06.

With GSMWGGFPVG, the amyloid nucleation score turned out to be 1.07 ± 0.85.

With GRAEAKLY, the amyloid nucleation score was -0.118 ± 0.31.

In turn, PFNMVWMRKYHLRSR came in with an amyloid nucleation score of -0.378 ± 0.34.

Turning to VLDGNKLQSRSLSCSSWYLS, the amyloid nucleation score was 4.03 ± 0.12.

HTEEGKSWFMRGSSVWFRVG registered an amyloid nucleation score of 0.341 ± 0.18.

As for SVSILP, the amyloid nucleation score was -0.34 ± 0.53.

The substance VGFNKL showed an amyloid nucleation score of 0.013 ± 0.6.

As for RLGPYSATWFVGKGKREGGV, the amyloid nucleation score was determined as 0.571 ± 0.55.

RYCQVP showed an amyloid nucleation score of 0.348 ± 0.43.

The substance RVIWEGNAVQTSAWGSADPK yielded an amyloid nucleation score of -0.264 ± 0.64.

Regarding CSTQRVPGGGLGKSWL, the amyloid nucleation score stood at 0.18 ± 1.2.

As for NSCNDRFHLAMRQGF, the amyloid nucleation score came to 0.067 ± 0.84.

Substance LRLCWLNQVRNKQGL showed an amyloid nucleation score of -0.481 ± 0.92.
